B1: GT29-5: Ginseng UDP-glycosyltransferase, 446 amino acids, SEQ ID NO: 14 (protein)
chain: MDNQKGRISIVMLPFLAHGHISPFFELAKHLSKRNCNIFLCSTPINLSSIKNRISDKDSSASIKLVELHLPSSPDLPPHYHTTNGLPSHLMVPLRNAFETAAPTFSEILKTLNPDLLIYDFNPSWAPEIASSHNIPAVCFIIGGAASFSMSLHSFKNPGEKYPFLDFDDNSNITPEPPSADNMKLLLDFMTCFERSCDIILIKSFRELEGKYIDLLSTLSDKTLVPVGPLVQDPMGHNEDPKTEQIINWLDKRAESTVVFVCFGSEYFLSNEELEEVAIGLEISMVNFIWAVRLIEGEKKGVLPEGFVQRVGDRGLVVEGWAPQARILGHSSTGGFVSHCGWSSIAESMKFGVPVIAMARHLDQPLNGKLAAEVGVGMEVVRDENGKYKREGIAEVIRKVVVEKSGEVIRRKARELSEKMKEIGEQLIDRAVEELVQICKKKKDEQ
modifications: misc_feature - GT29-5; Panax ginseng
B2: GT29-9: Ginseng UDP-glycosyltransferase, 446 amino acids, SEQ ID NO: 18 (protein)
chain: B1 chain with I213F, L215F, L216Y, I246F, G392D, E395G
modifications: misc_feature - GT29-9; Panax ginseng
B3: GT29-7: Ginseng UDP-glycosyltransferase, 446 amino acids, SEQ ID NO: 16 (protein)
chain: MDNQKGRISIALLPFLAHGHISPFFELAKQLAKRNCNVFLCSTPINLSSIKNRVSDKDSSASIKLVELHLPSSPDLPPHYHTTNGLPSHLMIPLRNAFDTAGPTFSEILKTLNPDLLIYDFNPSWAPEIASSHNIPAVCFIIGGAASSSMSLHSFKNPGEKYPFLDFDDNSNITPEPPSADNMKLLINFMTCFERSCDIILIKSFRELEGKYFDFFSTLSDKTLVPVGPLVQDPMGHNEDPKTEQFINWLDKRAESTVVFVCFGSECFLSNEELEEVAIGLEISMVNFIWAVRLIEGEKKGVLPEGFVQRVGDRGLVVEEWAPQARILGHSSTGGFVSHCGWNSITESMKFGVPVIAMARHFDQPLNGKLAAEVGVGMEVVRDENGKYKREGIAEVIRKVVVEKSGEVIRRKARELSEKMKEKGEQEIDRVVEELVQICKKKKDEQ
modifications: misc_feature - GT29-7; Panax ginseng
B4: GT29-11: Ginseng UDP-glycosyltransferase, 446 amino acids, SEQ ID NO: 20 (protein)
chain: MDNQKGRISIVMLPFLAHGHISPFFELAKHLSKRNCNIFLCSTPINLSSIKNRISDKDSSASIKLVELHLPSSPDLPPHYHTTNGLPSHLMVPLINAFETAGPTFSEILKTLNPDLLIYDFNPSWAPEIASSHNIPAVYFLTTAAASSSIGLHAFKNPGEKYPFPDFYDNSNNTPEPPSADNMKLLHDFIACFERSCDIILIKSFIELEGKYIDLLSTLSDKTLVPVGPLVQDPMGHNEDPKTEQIINWLDKRAESTVVFVCFGSEYFLSNEELEEVAIGLEISMVNFIWAVRLIEGEKKGVLPEGFVQRVGDRGLVVEGWAPQARILGHSSTGGFVSHCGWSSIAESMKFGVPVIAMARHLDQPLNGKLAAEVGVGMEVVRDENGKYKREGIAEVIRKVVVEKSGEVMRRKARELSEKMKEKGEEEIDRAVEELVQICKKKKDAQ
modifications: misc_feature - GT29-11; Panax ginseng
B5: GT29-4: Ginseng UDP-glycosyltransferase, 446 amino acids, SEQ ID NO: 12 (protein)
chain: MDNQEGRISIALLPFLAHGHISPFFELAKHLSKRNCNIFLCSTPINLSSIKNRISDKDSSASIKLVELHLPSSPDLPPHYHTTNGLPSHLMVPLRNAFETAAPTFSEILKTLNPDLLIYDFNPSWAPEIASSHNIPAVCFIIGGAASFSMSLHSFKNPGEKYPFLDFDDNSNITPEPPSADNMKLLLDFMTCFERSCDIILIKSFRELEGKYFDFYSTLSDKTLVPVGPLVQDPMGHNEDPKTEQFINWLDKRAESTVVFVCFGSEYFLSNEELEEVAIGLEISMVNFIWAVRLIEGEKKGVLPEGFVQRVGDRGLVVEGWAPQARILGHSSTGGFVSHCGWSSITESMKFGVPVIAMARHLDQPLNGKLAAEVGVGMEVVRDENGKYKREGIAEVIRKVVVEKSGEVMRRKARELSEKMKEKGEEEIDRAVEELVQICKKKKDAQ
modifications: misc_feature - GT29-4; Panax ginseng
B6: PNUGT29-4: Panax notoginseng glycosyltransferase, 447 amino acids, SEQ ID NO: 45 (protein)
chain: MDIEKGRISIVMLPFLAHGHISPFFELAKHLSKRNCNIFLCSTPINLSSIKNRVSDKDSSASIKLVELHLPSSPDLPPQYHTTNGLPSHLMVPLKNAFETVGPTFSEILKTLDPDLLIYDFNPSWAPEIALSHNIPAVYFLTSAAATSSVALRALKNPGEKYPFPDFYDNSNITPEPPSADKMKLFHDFVACFKRSCDIILIKSFRELEGKYIDLLSTLSKKTLVPVGPLVQDPLGHDEDPKTGHLINWLDKRAESTVVFVCFGSEYFPSNEELEEVAIGLEISMVNFILAVRFLEGEKKGVLPEGFVQRVGDRGLVVEGWAPQARILGHSSTGGFVSHCGWSSIMESVKFGVPVIAMARHLDQPLNAKLAAEVGVGMEVVRDENGKYTREAIAEVIRKVVMEKNGEVIRRKARELSDKMKEKGEQEIGRAVEELVQICKMKKDAQY
modifications: Panax notoginseng
B7: PNUGT29-8: Panax notoginseng glycosyltransferase, 447 amino acids, SEQ ID NO: 53 (protein)
chain: B6 chain with E373G, T389K, D418E, K423T
modifications: Panax notoginseng
B8: PNUGT29-7: Panax notoginseng glycosyltransferase, 447 amino acids, SEQ ID NO: 51 (protein)
chain: B6 chain with L117F
modifications: Panax notoginseng
B9: PNUGT29-5: Panax notoginseng glycosyltransferase, 447 amino acids, SEQ ID NO: 47 (protein)
chain: B6 chain with K442M
modifications: Panax notoginseng
B10: PNUGT29-6: Panax notoginseng glycosyltransferase, 447 amino acids, SEQ ID NO: 49 (protein)
chain: B6 chain with D56G
modifications: Panax notoginseng
B11: PNUGT29-9: Panax notoginseng glycosyltransferase, 447 amino acids, SEQ ID NO: 55 (protein)
chain: B6 chain with F25L, T389K, D418E, K423T
modifications: Panax notoginseng

Where a chain is given by its changes, count along the chain named.

One series in a line: In vitro transglycosylation at C-6, Rg1 as glycosyl acceptor, UDP-xylose as donor. It counts as biochemical. As to conditions: crude enzyme (E. coli lysate supernatant); TLC and HPLC, FIG. 7-9.
For B1, the “product formation from Rg1 and UDP-xylose (notoginsenoside R1)” value was “can catalyze the formation of Notoginsenoside RI”.
On the same count and under the same terms, under B2 stands “can catalyze the formation of Notoginsenoside RI”; under B3, “can catalyze the formation of Notoginsenoside RI”.
The same measure, in the same setting: the value for B4 was “can catalyze the formation of Notoginsenoside RI”; that for B5 was “can catalyze the formation of Notoginsenoside RI”.

The next series is described as follows: In vitro transglycosylation at C-3, Rh2 as glycosyl acceptor, UDP-glucose as donor. As to conditions: crude enzyme (E. coli lysate supernatant); TLC, FIG. 13, FIG. 15. It counts as biochemical. The source says:
(§1) Cell lysate of recombinant E. coli with empty vector pET28a was used as a control.
As for B6, the “product formation from Rh2 and UDP-glucose (Rg3)” value (shortened to “product formation … (Rg3)”) was “can catalyze the extension of a glucosyl at the C-3 glycosyl of Rh2 to generate Rg3”.
B7: the “product formation … (Rg3)” value was “can catalyze the extension of a glucosyl at the C-3 glycosyl of Rh2 to generate Rg3”.
With B8, the “product formation … (Rg3)” value is recorded as “can catalyze the extension of a glucosyl at the C-3 glycosyl of Rh2 to generate Rg3”.
Regarding B9, the “product formation … (Rg3)” value is “can catalyze the extension of a glucosyl at the C-3 glycosyl of Rh2 to generate Rg3”.
Turning to B10, the “product formation … (Rg3)” value is on record as “can catalyze the extension of a glucosyl at the C-3 glycosyl of Rh2 to generate Rg3”.
Regarding B11, the “product formation … (Rg3)” value was “can catalyze the extension of a glucosyl at the C-3 glycosyl of Rh2 to generate Rg3”.

Another series can be described thus: In vitro transglycosylation at C-20, CK as glycosyl acceptor, UDP-glucose as donor. It counts as biochemical. The following applies: crude enzyme (E. coli lysate supernatant); TLC/HPLC, FIG. 2, 3, 12, 16.
Description: as §1
As shown in FIG. 16: Protopanaxadiol Ginsenoside CK is used as a glycosyl acceptor, and UDP-glucose is used as a glycosyl donor.
Regarding B6, the “product formation from CK and UDP-glucose (Gypenoside LXXV)” value (“product formation … (Gypenoside LXXV)” for short) is on record as “can catalyze the extension of a glucosyl at the C-20 glycosyl to generate Gypenoside LXXV”.
For B7, the “product formation … (Gypenoside LXXV)” value is “can catalyze the extension of a glucosyl at the C-20 glycosyl to generate Gypenoside LXXV”.
Still for that read-out and setting: under B8 stands “can catalyze the extension of a glucosyl at the C-20 glycosyl to generate Gypenoside LXXV”; under B9, “can catalyze the extension of a glucosyl at the C-20 glycosyl to generate Gypenoside LXXV”.
On to B10, for which the “product formation … (Gypenoside LXXV)” value is recorded as “can catalyze the extension of a glucosyl at the C-20 glycosyl to generate Gypenoside LXXV”.
For the molecule B11, the “product formation … (Gypenoside LXXV)” value is on record as “can catalyze the extension of a glucosyl at the C-20 glycosyl to generate Gypenoside LXXV”.

Another series can be described thus: In vitro transglycosylation at C-20, Rd as glycosyl acceptor, UDP-glucose as donor. It counts as biochemical. As to conditions: crude enzyme (E. coli lysate supernatant); TLC/HPLC, FIG. 2, 3, 11.
Description: as §1
Consider B6, for which the “product formation from Rd and UDP-glucose (Rb1)” value is “can catalyze the extension of a glucosyl at the C-20 glycosyl of Rd to generate Rb1”.
Still for that read-out and setting: the value for B7 was “can catalyze the extension of a glucosyl at the C-20 glycosyl of Rd to generate Rb1”; that for B8 was “can catalyze the extension of a glucosyl at the C-20 glycosyl of Rd to generate Rb1”; that for B9 was “can catalyze the extension of a glucosyl at the C-20 glycosyl of Rd to generate Rb1”.
The same measure, in the same setting: under B10 stands “can catalyze the extension of a glucosyl at the C-20 glycosyl of Rd to generate Rb1”; under B11, “can catalyze the extension of a glucosyl at the C-20 glycosyl of Rd to generate Rb1”.

The values above are taken from US12356911B2, “Group of UDP-glycosyltransferase for catalyzing carbohydrate chain elongation and application thereof” (GSYNBIOT (SHANGHAI) CO., LTD, priority 2017, dated 2025).
